Results: patent US20260248897

Tests used:
[1] = target: RBD of SARS-CoV-2 (B lineage) (UniProt P0DTC2)
[2] = target: RBD of SARS-CoV-2, on infectious virus (UniProt P0DTC2)
RBD of hCoV-229E = RBD of hCoV-229E (UniProt P15423)

| Substance | disulfide bond cleavage activity (remaining rate of native RBD; maleimide-PEG 2k, SDS-PAGE) [1] | antiviral activity (number of viral copies of SARS-CoV-2 in supernatant of infected airway organoids) [2] | disulfide bond cleavage activity (remaining rate of native RBD; maleimide-PEG 2k, SDS-PAGE) (RBD of hCoV-229E) |
| --- | --- | --- | --- |
| gene recombinant of human PDI (protein disulfide isomerase) | The order of the disulfide bond cleavage activity of the RBD from highest to lowest was PDI, ERp46, P5, ERp72, and ERp57. Among these, the disulfide bond cleavage activity of PDI was significantly high. | Both PDI and ERp46 inhibited the SARS-CoV-2 infection in a concentration-dependent manner. | The order of the disulfide bond cleavage activity of the RBD of hCoV-229E from highest to lowest was PDI, ERp46, P5, Erp57, and ERp72. Among these, the disulfide bond cleavage activity of PDI was significantly high. |
| gene recombinant of human ERp46 (thioredoxin domain containing 5) | The order of the disulfide bond cleavage activity of the RBD from highest to lowest was PDI, ERp46, P5, ERp72, and ERp57. | Both PDI and ERp46 inhibited the SARS-CoV-2 infection in a concentration-dependent manner. | The order of the disulfide bond cleavage activity of the RBD of hCoV-229E from highest to lowest was PDI, ERp46, P5, Erp57, and ERp72. |
